These results are taken from doi:10.1101/585463.

For assay [1], the target named is non-glycosylated CmeA (g0CmeA), periplasmic fusion protein of the CmeABC multidrug efflux pump (Campylobacter jejuni) (UniProt Q0PBE3). Nature of the assay: SPR.
Assay [2] concerns the target fully glycosylated CmeA (g2CmeA) (Campylobacter jejuni) (UniProt Q0PBE3). Nature of the assay: SPR.

In assay [1], “CmeC, outer membrane associated channel of the CmeABC multidrug efflux pump (natural protein)” yielded a dissociation constant (Kd) of 17 nM, an off-rate constant (koff) of 0.0009 s⁻¹ and a kon of 50000 M⁻¹ s⁻¹. In assay [2], this substance displayed an equilibrium dissociation constant (Kd) of 5 nM, a dissociation rate constant (koff) of 0.00075 s⁻¹ and a kon of 150000 M⁻¹ s⁻¹.
